Measurements taken from article PMC7549790.

Target: Toll-like receptor 2 (mouse (endogenous in RAW264.7)) (UniProt Q9QUN7)
Sequence of UniProt Q9QUN7 (Q9QUN7 25-784): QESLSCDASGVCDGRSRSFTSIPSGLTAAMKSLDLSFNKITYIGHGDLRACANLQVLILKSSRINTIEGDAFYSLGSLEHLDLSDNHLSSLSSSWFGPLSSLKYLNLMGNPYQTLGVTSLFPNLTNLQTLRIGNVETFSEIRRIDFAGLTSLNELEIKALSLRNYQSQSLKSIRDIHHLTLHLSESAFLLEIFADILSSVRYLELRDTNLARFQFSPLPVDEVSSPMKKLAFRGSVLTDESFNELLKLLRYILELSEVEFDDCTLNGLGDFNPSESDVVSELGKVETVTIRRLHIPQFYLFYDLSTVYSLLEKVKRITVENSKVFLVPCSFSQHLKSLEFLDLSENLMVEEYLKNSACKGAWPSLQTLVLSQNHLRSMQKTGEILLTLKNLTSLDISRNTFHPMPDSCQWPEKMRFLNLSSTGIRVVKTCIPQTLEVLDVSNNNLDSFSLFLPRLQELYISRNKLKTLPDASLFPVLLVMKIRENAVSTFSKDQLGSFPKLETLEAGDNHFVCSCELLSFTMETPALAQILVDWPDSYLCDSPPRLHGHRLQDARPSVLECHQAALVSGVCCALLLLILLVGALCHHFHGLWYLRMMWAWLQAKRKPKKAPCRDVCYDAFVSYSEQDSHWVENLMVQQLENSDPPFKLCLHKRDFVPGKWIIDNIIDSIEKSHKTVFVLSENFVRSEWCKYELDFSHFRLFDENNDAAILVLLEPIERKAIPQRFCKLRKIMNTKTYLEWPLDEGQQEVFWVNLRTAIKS

Which IL-10 secreted by RAW264.7 macrophages stimulated with 5~20 μg/ml rCsHscB for 12 h or 24 h (ELISA); highest at 20 μg/ml for 24 h (fold over DMEM-stimulated cells) does the source give for “recombinant Clonorchis sinensis molecular chaperone HscB (natural protein)” here?
Its IL-10 secreted by RAW264.7 macrophages stimulated with 5~20 μg/ml rCsHscB for 12 h or 24 h (ELISA); highest at 20 μg/ml for 24 h (fold over DMEM-stimulated cells) is > 10.
